Legend:
PAR2 [1] = assay: BRET receptor trafficking, PAR2-RLuc8 with plasma membrane marker RIT-venus in HEK293 cells; assay type: cell-based; details: trypsin 10 nM
Procedure: (§1) Bret studies of receptor trafficking were conducted to quantify PAR2 internalisation (RIT-venus) and trafficking to early endosomes (Rab5a-venus) upon stimulation with different agonists.
(§2) After achieving ˜50% confluency within 10 cm dishes HEK293 cells were transiently transfected with 1 μg PAR2-RLuc8 and 4 μg of either RIT-venus or Rab5a-venus using PEI as a transfection agent. 24 hours post transfection, cells were seeded into poly-D-lysine coated 96-well isoplates. […] When used endocytic inhibitors were diluted in 1×HBSS+1% dimethyl sulfoxide (DMSO). Following the replacement of culture media cells were allowed to equilibrate at 37° C. for 30 minutes before the addition of colenterazine H [5 μM]. After a further 5 minute incubation BRET was assessed using a LUMIstar Omega microplate reader (BMG LabTech, Offenburg, Germany), with luminescence being read at 535 nm and 475 nm. A 4 minute baseline was obtained before the addition of vehicle (1×HBSS+/−1% DMSO) or protease, measurements were then continued for a further 30 minutes. BRET ratios were calculated using LUMIstar MARS analysis software and then corrected to baseline and vehicle treatments in Microsoft Excel 2013.

PAR2 [2] = assay: BRET receptor trafficking, PAR2-RLuc8 with early endosomal marker Rab5a-venus in HEK293 cells; assay type: cell-based; details: trypsin 10 nM
Procedure: as §1, §2

DRG neurons = assay: Perforated patch-clamp excitability (rheobase) of isolated DRG neurons; assay type: cell-based, mice; details: 0 min and 30 min after washing
Procedure: To assess the effects of proteases on excitability of nociceptors, DRG neurons were preincubated with trypsin, cathepsin S, elastase or vehicle (control), washed, and rheobase and action potential discharge at a current of twice rheobase were measured at 0 min or 30 min after washing.
DRG (T9-T13) from C57BL/6 mice were digested by incubation in collagenase (1 mg/ml, Worthington Biochemical, Lakewood, N.J.) and dispase (4 mg/ml, Roche Life Science, Indianapolis, Ind.) for 10 min at 37° C., and were dispersed by trituration with a fire-polished Pasteur pipette. Cells were plated onto coverslips coated with laminin (0.017 mg/ml) and poly-D-lysine (2 mg/ml) in 24-well plates. […]
Neuronal excitability was assessed by perforated patch-clamp recordings with amphotericin B (240 μg/ml) from small diameter neurons (<30 pF capacitance) in current clamp mode at room temperature. Only neurons with resting membrane potentials more negative than −40 mV were analyzed. Changes in excitability were quantified by measuring rheobase (minimum current to fire action potential) and numbers of action potentials discharged at twice rheobase. […]
Results are expressed as mean±SE. […]

[3] = Protease-evoked mechanical hyperalgesia, von Frey paw withdrawal; assay type: in vivo, mice; details: ipsilateral paw
Procedure: (§3) Immediately before experiments the mice were acclimatized to the experimental apparatus, room and investigator for 1-2 h on 2 successive days. Mechanical nociceptive responses were evaluated by paw withdrawal to stimulation of the plantar surface of the hind-paw with calibrated von Frey filaments. von Frey scores were measured in triplicate to establish a baseline for each animal on the day before experiments. Paw edema was estimated by measuring the thickness of the hindpaw using digital calipers before and after treatments. Mice were […] with 5% isoflurane for intraplantar injections. Dyngo4a (50 μM), PitStop2 (50 μM) or vehicle (0.2% DMSO in 0.9% NaCl) (all 10 μl) were injected into the left hindpaw. After 30 min, trypsin (10 nM), Cat-S (2.5 μM) or elastase (30 U) (all 10 μl) were injected into the same left hindpaw. von Frey scores (left and right paws) and paw thickness (left paw) were measured hourly for up to 4 h after protease injection. Investigators were blinded to the test agents.

[4] = Protease-evoked paw edema, hindpaw thickness; assay type: in vivo, mice; details: ipsilateral paw
Procedure: as §3

PAR2 [5] = assay: BRET proximity of PAR2 to KRas (plasma membrane) and Rab5a (endosomes) in HEK cells; assay type: cell-based; details: HEK cells
Procedure: (§4) The contribution of endocytosis of protease-activated receptor-2 (PAR2) was evaluated for generation of signals in subcellular compartments that mediate protease-evoked sensitization of nociceptors. Bioluminescence resonance energy transfer (BRET) was used to assess the proximity of PAR2 to resident proteins of the plasma membrane (KRas) and endosomes (Rab5a) in HEK cells. […] Förster resonance energy transfer (FRET) biosensors targeted to the plasma membrane, cytosol or nucleus were used to examine the capacity of proteases to generate signals in subcellular compartments of HEK cells and rat dorsal root ganglia neurons. […] Dynamin inhibitor Dyngo4a, Clathrin inhibitor Pitstop2 and dominant negative β-arrestin inhibited trypsin-evoked endocytosis of PAR2, and prevented trypsin-evoked activation of cytosolic cAMP and PKC and nuclear ERK. […] To examine the link between PAR2 endocytosis, compartmentalized signaling and nociceptor sensitization, perforated patch clamp recordings were made from mouse dorsal root ganglia neurons. […] The effects of proteases on excitability were blocked by the PAR2 antagonist GB88. Thus, canonical and biased proteases sensitize nociceptors by distinct mechanisms. For canonical agonists, PAR2 endocytosis generates compartmentalized signals subcellular compartments that underlie sustained excitability of nociceptive neurons. […]

PAR2 [6] = assay: FRET biosensors for compartmentalised cAMP, PKC and ERK signals in HEK cells and rat dorsal root ganglia neurons; assay type: cell-based
Procedure: as §4

B1: cathepsin S: biased agonist protease of PAR2 (protein, UniProt P25774 115-331, looked up)
Cathepsin S: LPDSVDWREKGCVTEVKYQGSCGACWAFSAVGALEAQLKLKTGKLVSLSAQNLVDCSTEKYGNKGCNGGFMTTAFQYIIDNKGIDSDASYPYKAMDQKCQYDSKYRAATCSKYTELPYGREDVLKEAVANKGPVSVGVDARHPSFFLYRSGVYYEPSCTQNVNHGVLVVGYGDLNGKEYWLVKNSWGHNFGEEGYIRMARNKGNHCGIASFPSYPEI
Change in BRET between PAR2 and plasma membrane marker upon agonist stimulation (PAR2 [1]): not observed
Change in BRET between PAR2 and early endosomal marker upon agonist stimulation (PAR2 [2]): not observed
Effect of protease on excitability (rheobase) of DRG neurons (DRG neurons): immediate increase in excitability
Mechanical hyperalgesia after intraplantar injection of protease [3]: caused mechanical hyperalgesia of the ipsilateral paw that was sustained for at least 4 h
Edema after intraplantar injection of protease [4]: edema of the ipsilateral paw that was maximal after 4 h
PAR2 endocytosis induced by agonist (PAR2 [5]): did not induce PAR2 endocytosis
Signals generated by protease in subcellular compartments (PAR2 [6]): only activated cAMP and PKC at the plasma membrane and ERK in the cytosol

From US20190298743A1, “TREATMENT OF PAIN” (Takeda Pharmaceutical Company Limited, priority 2016, published 2019)
